Measured values: US20020146750A1 (published 2002)

Target: T1, MUC1 60-mer peptide NH2-(…)3-COOH (biotinylated in the ELISAs and selections)
T1 construct: also called biotinylated MUC1 60-mer
Test: ELISA, soluble Fab, biotinylated MUC1 60-mer; relative signal
Description: Soluble Fabs were produced as described (Roovers et al., Br. J. Cancer, 78: 1407-16 (1998)). ELISAs were performed as described by Henderikx et al. (Cancer Res., 58: 4324-4332 (1998)), except the biotinylated MUC1 60-mer was used. The selected PH1 and the affinity-matured antibodies were evaluated for affinity by surface plasmon resonance (SPR) on a BIAcore 2000 apparatus (BIAcore AB, Uppsala, Sweden). Channels of a biotin chip were coated with a MUC1 15-mer, containing the minimal PH1 epitope, PAP, (Ac-PDTRPAPGSTAPPAL-NH₂, (SEQ ID NO:40) 50 RU or 320 RU) or a 60-mer (NH₂-([…])₃-COOH (i.e., containing three copies of SEQ ID NO:8 (von Mensdorff-Pouilly et al., Tumor Biol., 19: 186-195 (1998), 50 RU) in HBS-EP buffer (Pharmacia). One surface was blocked with biotin (15 RU) and used as a negative control. The antibodies were injected in HBS-EP buffer. To minimize rebinding of the antigen binding fragments, the flow speed was 30 μl/sec. Affinity calculation was performed with the BIA-evaluation software provided by the BIAcore. The affinities of the Fabs were calculated according to a 1:1 stoichiometry at steady state.

T1 sequence (peptide, as listed by the source): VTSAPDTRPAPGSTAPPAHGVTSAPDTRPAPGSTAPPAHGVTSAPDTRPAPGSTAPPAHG

Binder	binding result
3A7 (Fab, V domains shown, PH1 Fab variant) VH: QVQLVQSGGGLVQPGGSLRLSCAASGFTFRSNAMGWVRQAPGKGLEWVSGISGSGGSTYYADSVKGRFTISRDNSKNTLYLQMNSLRAEDTAVYYCAKHTGGGVWDPIDKWGQGTLVTVSS VL: EIVLTQSPLSLPVTPGEPASISCRSSQSLLHSNGYTYLDWYLQKPGQSPQLLIYSGSHRASGVPDRFSGSVSGTDFTLRISRVEAEDVGVYYCMQGLQSPFTFGPGTKVDIKR	binds
3B9 (Fab, V domains shown, PH1 Fab variant) VH: QVQLVQSGGGLVQPGGSLRLSCAASGFTFRSNAMGWVRQAPGKGLEWVSGISGSGGSTYYADSVKGRFTISRDNSKNTLYLQMNSLRAEDTAVYYCAKHTGGGVWDPLGYWGQGTLVTVSS VL: EIVLTQSPLSLPVTPGEPASISCRSSQSLLHSNGYTYLDWYLQKPGQSPQLLIYSGSHRASGVPDRFSGSVSGTDFTLRISRVEAEDVGVYYCMQGLQSPFTFGPGTKVDIKR	binds
3H1 (Fab, V domains shown, PH1 Fab variant) VH: QVQLVQSGGGLVQPGGSLRLSCAASGFTFRSNAMGWVRQAPGKGLEWVSGISGSGGSTYYADSVKGRFTISRDNSKNTLYLQMNSLRAEDTAVYYCAKHTGGGVWDPFAYWGQGTLVTVSS VL: EIVLTQSPLSLPVTPGEPASISCRSSQSLLHSNGYTYLDWYLQKPGQSPQLLIYSGSHRASGVPDRFSGSVSGTDFTLRISRVEAEDVGVYYCMQGLQSPFTFGPGTKVDIKR	binds
3F7 (Fab, V domains shown, PH1 Fab variant) VH: QVQLVQSGGGLVQPGGSLRLSCAASGFTFRSNAMGWVRQAPGKGLEWVSGISGSGGSTYYADSVKGRFTISRDNSKNTLYLQMNSLRAEDTAVYYCAKHTGGGVWDPIYYWGQGTLVTVSS VL: EIVLTQSPLSLPVTPGEPASISCRSSQSLLHSNGYTYLDWYLQKPGQSPQLLIYSGSHRASGVPDRFSGSVSGTDFTLRISRVEAEDVGVYYCMQGLQSPFTFGPGTKVDIKR	binds
3H2 (Fab, V domains shown, PH1 Fab variant) VH: QVQLVQSGGGLVQPGGSLRLSCAASGFTFRSNAMGWVRQAPGKGLEWVSGISGSGGSTYYADSVKGRFTISRDNSKNTLYLQMNSLRAEDTAVYYCAKHTGGGVWDPMDYWGQGTLVTVSS VL: EIVLTQSPLSLPVTPGEPASISCRSSQSLLHSNGYTYLDWYLQKPGQSPQLLIYSGSHRASGVPDRFSGSVSGTDFTLRISRVEAEDVGVYYCMQGLQSPFTFGPGTKVDIKR	binds
3F3 (Fab, V domains shown, PH1 Fab variant) VH: QVQLVQSGGGLVQPGGSLRLSCAASGFTFRSNAMGWVRQAPGKGLEWVSGISGSGGSTYYADSVKGRFTISRDNSKNTLYLQMNSLRAEDTAVYYCAKHTGRGVWDPIDYWGQGTLVTVSS VL: EIVLTQSPLSLPVTPGEPASISCRSSQSLLHSNGYTYLDWYLQKPGQSPQLLIYSGSHRASGVPDRFSGSVSGTDFTLRISRVEAEDVGVYYCMQGLQSPFTFGPGTKVDIKR	binds
3D7 (Fab, V domains shown, PH1 Fab variant) VH: QVQLVQSGGGLVQPGGSLRLSCAASGFTFRSNAMGWVRQAPGKGLEWVSGISGSGGSTYYADSVKGRFTISRDNSKNTLYLQMNSLRAEDTAVYYCAKHTGAGVWDPIDYWGQGTLVTVSS VL: EIVLTQSPLSLPVTPGEPASISCRSSQSLLHSNGYTYLDWYLQKPGQSPQLLIYSGSHRASGVPDRFSGSVSGTDFTLRISRVEAEDVGVYYCMQGLQSPFTFGPGTKVDIKR	binds
6B3 (Fab, V domains shown, PH1 Fab variant) VH: QVQLVQSGGGLVQPGGSLRLSCAASGFTFRSNAMGWVRQAPGKGLEWVSGISGSGGSTYYADSVKGRFTISRDNSKNTLYLQMNSLRAEDTAVYYCAKHTGGGVWDPIGHWGQGTLVTVSS VL: EIVLTQSPLSLPVTPGEPASISCRSSQSLLHSNGYTYLDWYLQKPGQSPQLLIYSGSHRASGVPDRFSGSVSGTDFTLRISRVEAEDVGVYYCMQGLQSPFTFGPGTKVDIKR	binds
3E2 (Fab, V domains shown, PH1 Fab variant) VH: QVQLVQSGGGLVQPGGSLRLSCAASGFTFRSNAMGWVRQAPGKGLEWVSGISGSGGSTYYADSVKGRFTISRDNSKNTLYLQMNSLRAEDTAVYYCAKHTGGGVWDPIAYWGQGTLVTVSS VL: EIVLTQSPLSLPVTPGEPASISCRSSQSLLHSNGYTYLDWYLQKPGQSPQLLIYSGSHRASGVPDRFSGSVSGTDFTLRISRVEAEDVGVYYCMQGLQSPFTFGPGTKVDIKR	binds
3B8 (Fab, V domains shown, PH1 Fab variant) VH: QVQLVQSGGGLVQPGGSLRLSCAASGFTFRSNAMGWVRQAPGKGLEWVSGISGSGGSTYYADSVKGRFTISRDNSKNTLYLQMNSLRAEDTAVYYCAKHTGAGVWDPIDYWGQGTLVTVSS VL: EIVLTQSPLSLPVTPGEPASISCRSSQSLLHSNGYTYLDWYLQKPGQSPQLLIYSGSHRASGVPDRFSGSVSGTDFTLRISRVEAEDVGVYYCMQGLQSPFTFGPGTKVDIKR	binds
3F4 (Fab, V domains shown, PH1 Fab variant) VH: QVQLVQSGGGLVQPGGSLRLSCAASGFTFRSNAMGWVRQAPGKGLEWVSGISGSGGSTYYADSVKGRFTISRDNSKNTLYLQMNSLRAEDTAVYYCAKHTGGGVWDPIANWGQGTLVTVSS VL: EIVLTQSPLSLPVTPGEPASISCRSSQSLLHSNGYTYLDWYLQKPGQSPQLLIYSGSHRASGVPDRFSGSVSGTDFTLRISRVEAEDVGVYYCMQGLQSPFTFGPGTKVDIKR	binds
3D1 (Fab, V domains shown, PH1 Fab variant) VH: QVQLVQSGGGLVQPGGSLRLSCAASGFTFRSNAMGWVRQAPGKGLEWVSGISGSGGSTYYADSVKGRFTISRDNSKNTLYLQMNSLRAEDTAVYYCAQHTGGGVWDPIGYWGQGTLVTVSS VL: EIVLTQSPLSLPVTPGEPASISCRSSQSLLHSNGYTYLDWYLQKPGQSPQLLIYSGSHRASGVPDRFSGSVSGTDFTLRISRVEAEDVGVYYCMQGLQSPFTFGPGTKVDIKR	binds
3G1 (Fab, V domains shown, PH1 Fab variant) VH: QVQLVQSGGGLVQPGGSLRLSCAASGFTFRSNAMGWVRQAPGKGLEWVSGISGSGGSTYYADSVKGRFTISRDNSKNTLYLQMNSLRAEDTAVYYCAKHTGGGVWDPIDDWGQGTLVTVSS VL: EIVLTQSPLSLPVTPGEPASISCRSSQSLLHSNGYTYLDWYLQKPGQSPQLLIYSGSHRASGVPDRFSGSVSGTDFTLRISRVEAEDVGVYYCMQGLQSPFTFGPGTKVDIKR	binds
6A9 (Fab, V domains shown, PH1 Fab variant) VH: QVQLVQSGGGLVQPGGSLRLSCAASGFTFRSNAMGWVRQAPGKGLEWVSGISGSGGSTYYADSVKGRFTISRDNSKNTLYLQMNSLRAEDTAVYYCAKHTGSGVWDPINYWGQGTLVTVSS VL: EIVLTQSPLSLPVTPGEPASISCRSSQSLLHSNGYTYLDWYLQKPGQSPQLLIYSGSHRASGVPDRFSGSVSGTDFTLRISRVEAEDVGVYYCMQGLQSPFTFGPGTKVDIKR	binds
5A6 (Fab, V domains shown, PH1 Fab variant) VH: QVQLVQSGGGLVQPGGSLRLSCAASGFTFRSNAMGWVRQAPGKGLEWVSGISGSGGSTYYADSVKGRFTISRDNSKNTLYLQMNSLRAEDTAVYYCVKHTGGGVWDPIDYWGQGTLVTVSS VL: EIVLTQSPLSLPVTPGEPASISCRSSQSLLHSNGYTYLDWYLQKPGQSPQLLIYSGSHRASGVPDRFSGSVSGTDFTLRISRVEAEDVGVYYCMQGLQSPFTFGPGTKVDIKR	binds
